Experimental data as given in the supplement of paper PMC9112550, “Optimization of the antimicrobial peptide Bac7 by deep mutational scanning” (BMC Biology, 2022).

Each sequence was assayed on Escherichia coli TOP10 (assay: shrunken log2 fold change of peptide-encoding DNA abundance (4.5 h post-induction vs induction); higher = less antimicrobial activity (less host growth inhibition)). Conditions: time post-induction: 4.5 h; library: site-saturation at positions 5, 18, 19, 20.
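Further: peptides expressed intracellularly from a pBAD plasmid library in pooled LB shake-flask culture, induced with 0.3% L-arabinose, DNA abundance read by NGS, three biological replicates, DESeq2 with apeglm shrinkage.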

Sequence	shrunken log2 fold change
RRIRRRPPRLPRPRPRPHPFPRP	0.116
RRIRRRPPRLPRPRPRPHPTPRP	0.563
RRIRRRPPRLPRPRPRPHQWPRP	0.144
RRIRRRPPRLPRPRPRPHSAPRP	0.0905
RRIRRRPPRLPRPRPRPHSTPRP	0.0894
RRIRRRPPRLPRPRPRPHTTPRP	-0.303
RRIRRRPPRLPRPRPRPHVEPRP	-0.162
RRIRRRPPRLPRPRPRPHWGPRP	0.291
RRIRRRPPRLPRPRPRPHWKPRP	-0.00963
RRIRRRPPRLPRPRPRPHWLPRP	0.28
RRIRRRPPRLPRPRPRPHYKPRP	-0.487
RRIRRRPPRLPRPRPRPHYWPRP	0.0315
RRIRRRPPRLPRPRPRPIALPRP	0.0331
RRIRRRPPRLPRPRPRPIAYPRP	0.0129
RRIRRRPPRLPRPRPRPIDFPRP	0.137
RRIRRRPPRLPRPRPRPIGTPRP	0.00964
RRIRRRPPRLPRPRPRPIIMPRP	-0.444
RRIRRRPPRLPRPRPRPIKNPRP	0.278
RRIRRRPPRLPRPRPRPILQPRP	1.83
RRIRRRPPRLPRPRPRPIMPPRP	-0.188
RRIRRRPPRLPRPRPRPIMYPRP	-0.186
RRIRRRPPRLPRPRPRPIPCPRP	0.0472
RRIRRRPPRLPRPRPRPIPPPRP	0.452
RRIRRRPPRLPRPRPRPIQHPRP	0.0238
RRIRRRPPRLPRPRPRPIQNPRP	0.0525

Sequence	shrunken log2 fold change
RRIRRRPPRLPRPRPRPIQWPRP	-0.105
RRIRRRPPRLPRPRPRPISQPRP	-0.395
RRIRRRPPRLPRPRPRPITLPRP	-0.0936
RRIRRRPPRLPRPRPRPIVWPRP	0.0811
RRIRRRPPRLPRPRPRPIWAPRP	0.0342
RRIRRRPPRLPRPRPRPIWGPRP	0.163
RRIRRRPPRLPRPRPRPIYEPRP	0.0785
RRIRRRPPRLPRPRPRPKAGPRP	0.319
RRIRRRPPRLPRPRPRPKATPRP	0.165
RRIRRRPPRLPRPRPRPKCAPRP	0.884
RRIRRRPPRLPRPRPRPKCCPRP	0.00261
RRIRRRPPRLPRPRPRPKCIPRP	-0.019
RRIRRRPPRLPRPRPRPKCKPRP	-0.0255
RRIRRRPPRLPRPRPRPKCLPRP	0.144
RRIRRRPPRLPRPRPRPKEDPRP	0.196
RRIRRRPPRLPRPRPRPKEIPRP	0.205
RRIRRRPPRLPRPRPRPKEQPRP	0.118
RRIRRRPPRLPRPRPRPKERPRP	-0.327
RRIRRRPPRLPRPRPRPKFAPRP	0.283
RRIRRRPPRLPRPRPRPKFFPRP	-0.00723
RRIRRRPPRLPRPRPRPKHDPRP	1.2
RRIRRRPPRLPRPRPRPKKQPRP	-0.0969
RRIRRRPPRLPRPRPRPKLPPRP	0.369
RRIRRRPPRLPRPRPRPKPHPRP	0.536
RRIRRRPPRLPRPRPRPKPNPRP	0.531

Sequence	shrunken log2 fold change
RRIRRRPPRLPRPRPRPKQEPRP	0.0674
RRIRRRPPRLPRPRPRPKRCPRP	-0.131
RRIRRRPPRLPRPRPRPKREPRP	0.304
RRIRRRPPRLPRPRPRPKRGPRP	0.44
RRIRRRPPRLPRPRPRPKTKPRP	-0.146
RRIRRRPPRLPRPRPRPKTPPRP	0.782
RRIRRRPPRLPRPRPRPKVSPRP	0.267
RRIRRRPPRLPRPRPRPKWTPRP	-0.149
RRIRRRPPRLPRPRPRPKYNPRP	-0.384
RRIRRRPPRLPRPRPRPLARPRP	0.153
RRIRRRPPRLPRPRPRPLCKPRP	0.167
RRIRRRPPRLPRPRPRPLCRPRP	0.224
RRIRRRPPRLPRPRPRPLDWPRP	0.297
RRIRRRPPRLPRPRPRPLEHPRP	0.21
RRIRRRPPRLPRPRPRPLGWPRP	1.07
RRIRRRPPRLPRPRPRPLIFPRP	-0.00389
RRIRRRPPRLPRPRPRPLKEPRP	0.0888
RRIRRRPPRLPRPRPRPLKPPRP	0.314
RRIRRRPPRLPRPRPRPLMDPRP	0.235
RRIRRRPPRLPRPRPRPLMQPRP	0.396
RRIRRRPPRLPRPRPRPLNEPRP	0.162
RRIRRRPPRLPRPRPRPLQPPRP	0.873
RRIRRRPPRLPRPRPRPLRCPRP	0.714
RRIRRRPPRLPRPRPRPLTCPRP	-0.12
RRIRRRPPRLPRPRPRPLTGPRP	0.0456
